Data reported in article PMC4536308.

How the values were obtained:
[1] = biological target: T1, AUF1 p37 C207E (UniProt Q14103-4 1-287, C207E); test: EMSA
[2] = biological target: HILI (hHILI) (human, UniProt Q8TC59 1-973); test: single-molecule fluorescence
[3] = biological target: AGO2 (hAGO2) (human, UniProt Q9UKV8 1-859); test: single-molecule fluorescence
[4] = biological target: AUF1 p37 (UniProt Q14103-4 1-287); test: fluorescence anisotropy
[5] = biological target: T1, AUF1 p37 C207E; test: fluorescence anisotropy
[6] = biological target: AUF1 p42 (UniProt Q14103-2 1-336); test: fluorescence anisotropy

Sequence of HILI (hHILI) (Q8TC59 whole entry): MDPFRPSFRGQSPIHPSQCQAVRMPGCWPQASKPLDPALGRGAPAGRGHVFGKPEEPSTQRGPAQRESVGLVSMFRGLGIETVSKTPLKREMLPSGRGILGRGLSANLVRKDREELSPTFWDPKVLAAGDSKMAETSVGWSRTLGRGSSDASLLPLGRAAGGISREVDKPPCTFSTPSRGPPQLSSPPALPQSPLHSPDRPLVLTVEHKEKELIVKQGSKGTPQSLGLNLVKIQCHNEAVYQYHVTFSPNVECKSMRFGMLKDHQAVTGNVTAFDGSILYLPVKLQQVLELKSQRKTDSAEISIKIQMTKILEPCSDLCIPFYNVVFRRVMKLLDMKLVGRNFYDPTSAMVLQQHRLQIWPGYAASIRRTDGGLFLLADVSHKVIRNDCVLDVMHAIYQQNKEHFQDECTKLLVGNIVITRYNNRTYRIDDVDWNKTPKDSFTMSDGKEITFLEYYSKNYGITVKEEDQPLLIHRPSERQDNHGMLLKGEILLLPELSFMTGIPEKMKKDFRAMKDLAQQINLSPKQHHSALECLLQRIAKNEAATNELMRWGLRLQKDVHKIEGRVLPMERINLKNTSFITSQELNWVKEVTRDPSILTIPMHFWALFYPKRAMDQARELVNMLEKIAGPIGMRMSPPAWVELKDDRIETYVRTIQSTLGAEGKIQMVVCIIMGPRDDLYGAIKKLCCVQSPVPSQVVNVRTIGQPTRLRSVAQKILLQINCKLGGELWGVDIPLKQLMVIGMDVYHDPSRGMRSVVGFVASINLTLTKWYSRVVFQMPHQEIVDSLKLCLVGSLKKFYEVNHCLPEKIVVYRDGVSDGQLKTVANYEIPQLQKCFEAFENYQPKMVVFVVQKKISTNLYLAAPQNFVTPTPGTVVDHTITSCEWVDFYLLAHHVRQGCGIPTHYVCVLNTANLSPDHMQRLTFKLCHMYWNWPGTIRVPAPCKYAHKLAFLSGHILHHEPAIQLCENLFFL
Sequence of AGO2 (hAGO2) (Q9UKV8 whole entry): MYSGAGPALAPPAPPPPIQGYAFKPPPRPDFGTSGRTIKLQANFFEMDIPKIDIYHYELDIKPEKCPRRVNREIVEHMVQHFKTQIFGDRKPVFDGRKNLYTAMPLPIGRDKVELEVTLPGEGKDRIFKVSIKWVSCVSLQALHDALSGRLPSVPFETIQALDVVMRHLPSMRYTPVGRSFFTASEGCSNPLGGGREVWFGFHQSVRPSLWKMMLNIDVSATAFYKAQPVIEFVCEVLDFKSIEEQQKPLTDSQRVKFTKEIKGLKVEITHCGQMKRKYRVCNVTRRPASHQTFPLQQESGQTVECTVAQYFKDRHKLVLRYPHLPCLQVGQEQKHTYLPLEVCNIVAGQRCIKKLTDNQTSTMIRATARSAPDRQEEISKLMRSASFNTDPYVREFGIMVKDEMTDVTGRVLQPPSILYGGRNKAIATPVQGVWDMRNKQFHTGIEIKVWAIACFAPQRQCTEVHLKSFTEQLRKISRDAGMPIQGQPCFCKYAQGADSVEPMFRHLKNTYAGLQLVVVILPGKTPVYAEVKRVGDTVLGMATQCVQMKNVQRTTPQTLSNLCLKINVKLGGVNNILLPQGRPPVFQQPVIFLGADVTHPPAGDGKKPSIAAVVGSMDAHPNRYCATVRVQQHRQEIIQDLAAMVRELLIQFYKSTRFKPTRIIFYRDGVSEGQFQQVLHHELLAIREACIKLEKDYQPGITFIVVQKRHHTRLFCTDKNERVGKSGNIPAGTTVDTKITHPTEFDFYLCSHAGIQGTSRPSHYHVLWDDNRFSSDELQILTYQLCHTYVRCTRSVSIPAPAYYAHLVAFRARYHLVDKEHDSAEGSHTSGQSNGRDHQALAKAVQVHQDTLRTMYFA

UGAGGUAGUAGGUUGUGUGGUU (ssRNA) [let-7b (32P)]
binding result [1]: no binding

CUAUACAACCUACUGCCUUCCC (ssRNA) [let-7b* (32P or 3' Fl)]
binding result [1]: no binding

UGAGGUAGUAGGUUGUGUGGUU (ssRNA, amino-modifier C6 U at position 18 (iAmMC6)) [Cy5-let-7b (internal)]
binding result [2]: no binding | binding result [3]: binds

CCCCUGGCUCACAAAUACCUUAUUUAUUUAUUUAG (ssRNA) [canonical AU-rich element]
binding result [1]: no binding

UGAGGUAGUAGGUUGUGUGGUU (ssRNA) [let-7b (Fl)]
Kd [4]: 5.9 nM | binding result [5]: no binding | Kd [6]: 9.7 nM
